Data reported in publication doi:10.1101/2021.10.14.464379.
Values joined by “and” are separate entries in the source; they are usually repeats but may differ in a detail not shown here. Equal entries are not always repeated.

Key:
[1] = molecular target: ZmBAM7-S (short form of corn BAM7), full-length recombinant protein (Zea mays); test: SEC
[2] = molecular target: ZmBAM7-S (short form of corn BAM7), full-length recombinant protein (Zea mays); test: SAXS

stoichiometry N [1]: 4 subunits and 6 subunits | stoichiometry N [2]: 4
Substance: ZmBAM7-S (short form of corn BAM7), full-length recombinant protein (enzyme)
